From patent US20240174744A1 (SCIRHOM, published 2024) come the findings set out here.

This assay addresses T1, human iRhom1, endogenously expressed on RH-30 cells (human, UniProt Q96CC6 1-855).
T1 construct: RH-30 cells are described as endogenously negative for iRhom2 but endogenously expressing iRhom1; also called NP_071895.3
T1 sequence: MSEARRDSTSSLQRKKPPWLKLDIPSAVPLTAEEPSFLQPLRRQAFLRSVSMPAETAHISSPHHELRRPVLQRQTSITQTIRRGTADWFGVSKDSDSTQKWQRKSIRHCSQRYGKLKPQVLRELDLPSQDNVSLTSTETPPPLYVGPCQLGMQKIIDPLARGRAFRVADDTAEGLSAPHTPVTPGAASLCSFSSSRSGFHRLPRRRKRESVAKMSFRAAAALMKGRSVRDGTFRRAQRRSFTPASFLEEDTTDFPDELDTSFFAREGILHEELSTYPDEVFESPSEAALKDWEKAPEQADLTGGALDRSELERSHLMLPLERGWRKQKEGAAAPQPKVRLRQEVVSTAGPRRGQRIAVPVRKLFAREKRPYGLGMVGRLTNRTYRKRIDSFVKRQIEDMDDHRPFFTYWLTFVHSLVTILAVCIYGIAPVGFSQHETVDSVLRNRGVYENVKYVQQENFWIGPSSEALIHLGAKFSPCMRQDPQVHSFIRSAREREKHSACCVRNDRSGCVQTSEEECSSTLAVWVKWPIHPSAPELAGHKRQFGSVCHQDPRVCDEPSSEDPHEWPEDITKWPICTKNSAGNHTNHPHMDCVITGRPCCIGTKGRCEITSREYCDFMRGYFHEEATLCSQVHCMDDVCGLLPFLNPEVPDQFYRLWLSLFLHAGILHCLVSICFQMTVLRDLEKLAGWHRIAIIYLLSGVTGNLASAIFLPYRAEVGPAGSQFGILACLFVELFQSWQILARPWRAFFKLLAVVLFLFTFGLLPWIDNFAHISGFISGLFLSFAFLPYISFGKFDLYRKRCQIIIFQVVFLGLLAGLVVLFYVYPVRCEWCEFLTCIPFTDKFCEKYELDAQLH
The experiment in a line: FACS, RH-30 cells (endogenous iRhom1, no iRhom2). The procedure:
In brief, human RPMI-8226 cells (Deutsche Sammlung von Mikroorganismen und Zellkulturen, Germany), THP-1 cells (American Type Culture Collection, USA) and RH-30 cells (Deutsche Sammlung von Mikroorganismen und Zellkulturen, Germany) were harvested with 10 mM EDTA in PBS, washed and resuspended in FACS buffer (PBS, 3% FBS, 0.05% sodium azide), and seeded in Nunc U-bottom 96-well plates (Thermo Fisher Scientific, USA) at approximately 2×10⁵ cells per well. In order to pellet cells and remove supernatants, the plates were centrifuged at 1,500 rpm and 4° C. for 3 minutes. For primary staining, cells were resuspended in 100 μl per well of either FACS buffer alone (controls), a 1:60 dilution of the hybridoma supernatant, the primary material leading to the antibodies 3, 16, 22 and 42 of the present disclosure in FACS buffer or 3 μg/ml of the antibodies 16, 22 and 42 of the present disclosure in FACS buffer and incubated on ice for 1 hour. Afterwards, plates were centrifuged at 1,500 rpm and 4° C. for 3 minutes and washed twice with 200 μl per well of FACS buffer. […] Finally, cells were resuspended in 150 μl per well of FACS buffer and analyzed using a BD Accuri™ C6 Plus flow cytometer (Becton Dickinson, Germany).
(A flow cytometer gives signals particle by particle.)

B1: antibody 22 (antibody, V domains shown)
VH: QVTLKESGPGILQPSQTLSLTCSFSGFSLSTFGMGVGWIRQPSGKGLEWLAHIWWDDEKYYNSALKSRLTISKATSKNQVFLKIANVDTADTATYYCARISNYGSNYWYFNVWGTGTTVTVSS
VL: QVVLTQSPALMSASPGEKVTMTCSAGSSVSYMYWYQQKPGSSPRVLIYDTSNLASGVPARFTGSGSGTSYSLTISRMEAEDAATYYCQQWNSYPLTFGAGTKLELK
notes: Mouse IgG, kappa light chain; also called clone #22; m22
Take B1: the binding result is on record as “no binding (tested: 3 µg/ml)”.

B2: antibody 42 (antibody, V domains shown)
VH: QVTLKESGPGILQPSQTLSLTCSLSGFSLSTFGRGVGWIRQPSGKGLEWLAHIWWDDEKYYNPALKSRLTISKDTSKNQVFLRIANVDTADTATYYCARIQNYGSNYWYFDVWGTGTTVTVSS
VL: LIVLTQSPAIMSASPGEKVTMTCGATSRISYMFWYQQKPGSSPRVLIYDTSNLASGVPVRFSGSGSGTSYSLTISRVEAEDVATYYCQQWNSYPLTFGAGTKLELK
notes: Mouse IgG, kappa light chain; also called clone #42; m42
As to B2, the binding result is “no binding (tested: 3 µg/ml)”.
